This series concerns the target RAD51 (Homo sapiens, UniProt Q06609 Q06609:2-339). Nature of the series: FP; 0.2 uM RAD51, 2.22 nM ssDNA, 2 mM ATP, 10 mM MgCl2, 30 mM NaCl, pH 7.5, 37 C; binding used to measure compound effects, no Kd given. The settings on record: tags: human RAD51, purified as previously described (source inferred); label: 5'-Alexa488. The protocol: In each well, RAD51 protein was combined with reaction buffer and varying concentrations of compound in DMSO in an initial volume of 40 μl and incubated at 37° C. for 40 minutes. […] The final reaction contained 4% DMSO, 0.2 μM RAD51, 30 mM NaCl, 2% glycerol, and 2.22 nM ssDNA substrate.

Chain of RAD51 (Q06609 2-339, one chain of several): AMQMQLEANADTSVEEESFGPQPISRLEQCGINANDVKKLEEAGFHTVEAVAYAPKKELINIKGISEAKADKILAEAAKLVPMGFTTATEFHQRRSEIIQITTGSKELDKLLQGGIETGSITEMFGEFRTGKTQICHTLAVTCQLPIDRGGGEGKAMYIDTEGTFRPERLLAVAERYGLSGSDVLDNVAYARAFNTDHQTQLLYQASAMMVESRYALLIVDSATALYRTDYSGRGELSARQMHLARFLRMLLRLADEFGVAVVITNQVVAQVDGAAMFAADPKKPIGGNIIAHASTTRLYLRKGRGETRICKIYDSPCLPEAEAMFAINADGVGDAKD

B1: Alexa488-oligo-dT45 (ssDNA)
DNA: TTTTTTTTTTTTTTTTTTTTTTTTTTTTTTTTTTTTTTTTTTTTT
On to B1, for which the binding result is “binds”.

Source of the values: US20190083491, “SMALL MOLECULES INHIBITORS OF RAD51” (The University of Chicago, published 2019).
